Data set [1] has as its target human IgG4 antibody, half-molecule (heavy chain plus light chain) after reduction of the hinge disulfide bonds (human). The data set can be described thus: FRET or BRET; real-time Fab arm (half-molecule) exchange of whole IgG; equimolar DyLight488- and DyLight594-labelled antibody, inter-heavy chain disulfide bonds fully reduced with DTT, 37 °C; first-order exponential fit; kobs taken as the CH3-CH3 dissociation rate (dimer to half-molecules).

For data set [2], the target named is human IgG2 antibody, half-molecule (heavy chain plus light chain) after reduction of the hinge disulfide bonds (human). The data set is described as above.
The target is the same in data set [3]. The data set can be described thus: SEC; fluorescence-assisted HPLC; reduced (10 mM DTT) and alkylated (iodoacetamide) IgG, serial 4-fold dilutions 0.001-300 nM half-molecules with a small fixed dose of the DyLight-488 labelled equivalent, PBS with 0.1 mg/ml certolizumab pegol and 0.02% Tween 20, 37 °C up to 3 days; Superdex 200; dimer to half-molecules.
Data set [4] has as its target human IgG3 antibody (IGHG3*01), half-molecule (heavy chain plus light chain) after reduction of the hinge disulfide bonds (human). The data set can be described thus: FRET or BRET; real-time Fab arm (half-molecule) exchange of whole IgG; equimolar DyLight488- and DyLight594-labelled antibody, inter-heavy chain disulfide bonds fully reduced with DTT, 37 °C; first-order exponential fit; kobs taken as the CH3-CH3 dissociation rate (dimer to half-molecules). (BRET reads energy transfer from a luciferase to a nearby fluorophore.)

The target of data set [5] is human IgG1 antibody, half-molecule (heavy chain plus light chain) after reduction of the hinge disulfide bonds (human). The data set is described as above.
For data set [6], the target named is G3*01 Fc fragment (CH2CH3 of IgG3 allele IGHG3*01, G3m(b*), with an IgG4 hinge) (human). The data set can be described thus: FRET or BRET; real-time half-molecule exchange of Fc fragments; 4 μg/ml Fc-488 and Fc-594 in PBS-P, each 1 h at 37 °C with 3 mM DTT, then mixed in equal volumes, 37 °C (IgG4-Fc-V397M/K392N at 10 μg/ml final); kobs taken as the CH3-CH3 dissociation rate (dimer to single chains).

Data set [7] concerns the molecule itself. The description is as above.
Data set [8] concerns the molecule itself. The data set can be described thus: FRET or BRET; equilibrium; 2-fold dilutions of equimolar Fc-488 and Fc-594, 2 h at 37 °C with 3 mM DTT; F620/F588 against total half-molecules; homodimerization model; dimer to single chains.

On to “human IgG4 antibody, half-molecule (heavy chain plus light chain) after reduction of the hinge disulfide bonds”, for which, in data set [1], the half-life of dissociation (t1/2) came out at 6 min and the koff is 0.0018 s⁻¹.
For “human IgG2 antibody, half-molecule (heavy chain plus light chain) after reduction of the hinge disulfide bonds”, in data set [2], the half-life of dissociation (t1/2) was determined as 6.5 h and the koff was determined as 3e-05 s⁻¹. For the same molecule, the Kd in data set [3] is 23 pM.
For the molecule “human IgG3 antibody (IGHG3*01), half-molecule (heavy chain plus light chain) after reduction of the hinge disulfide bonds”, in data set [4], the half-life of dissociation (t1/2) was 0.467 h and the koff is 0.0004 s⁻¹.
In the case of “human IgG1 antibody, half-molecule (heavy chain plus light chain) after reduction of the hinge disulfide bonds”, in data set [5], the half-life of dissociation (t1/2) came to 384 h and the koff was 5e-07 s⁻¹.
“G3*01 Fc fragment (CH2CH3 of IgG3 allele IGHG3*01, G3m(b*), with an IgG4 hinge) (domain or fragment)” registered a fold faster dissociation than G3*06 in data set [6] of more than 10 fold.

B1: G3*03 Fc fragment (CH2CH3 of IgG3 allele IGHG3*03, G3m(c3c5*), with an IgG4 hinge) (domain or fragment)
chain: ESKYGPPCPSCPAPELLGGPSVFLFPPKPKDTLMISRTPEVTCVVVDVSHEDPEVQFKWYVDGVEVHNAKTKPREEQYNSTFRVVSVLTVLHQDWLNGKEYKCKVSNKALPAPIEKTISKTKGQPREPQVYTLPPSREEMTKNQVSLTCLVKGFYPSDIAVEWESSGQPENNYNTTPPVLDSDGSFFLYSRLTVDKSRWQEGNVFSCSVMHEALHNRFTQKSLSLSPGK
modifications: DyLight 488 or DyLight 594 amine reactive dye (average degree of labeling ~2 for Fc fragments); hinge disulfide bonds reduced with DTT
Consider B1, for which the “fold faster dissociation than IgG4 (m17)” value in data set [7] was approximately 15 fold.

B2: G2-M397V Fc fragment (CH2CH3 of IgG2 with M397V, IgG4 hinge) (domain or fragment)
chain: ESKYGPPCPSCPAPPVAGPSVFLFPPKPKDTLMISRTPEVTCVVVDVSHEDPEVQFNWYVDGVEVHNAKTKPREEQFNSTFRVVSVLTVVHQDWLNGKEYKCKVSNKGLPAPIEKTISKTKGQPREPQVYTLPPSREEMTKNQVSLTCLVKGFYPSDISVEWESNGQPENNYKTTPPVLDSDGSFFLYSKLTVDKSRWQQGNVFSCSVMHEALHNHYTQKSLSLSPGK
modifications: DyLight 488 or DyLight 594 amine reactive dye (average degree of labeling ~2 for Fc fragments); hinge disulfide bonds reduced with DTT
As to B2, in data set [7], the koff is less than 1e-06 s⁻¹.

B3: IgG4-V397M/K392N Fc fragment (domain or fragment)
chain: ESKYGPPCPSCPAPEFLGGPSVFLFPPKPKDTLMISRTPEVTCVVVDVSQEDPEVQFNWYVDGVEVHNAKTKPREEQFNSTYRVVSVLTVLHQDWLNGKEYKCKVSNKGLPSSIEKTISKAKGQPREPQVYTLPPSQEEMTKNQVSLTCLVKGFYPSDIAVEWESNGQPENNYNTTPPMLDSDGSFFLYSRLTVDKSRWQEGNVFSCSVMHEALHNHYTQKSLSLSLGK
modifications: DyLight 488 or DyLight 594 amine reactive dye (average degree of labeling ~2 for Fc fragments); hinge disulfide bonds reduced with DTT
With B3, in data set [8], binding was characterised by a dissociation constant (Kd) of 2.3 µM. This molecule displayed a koff in data set [7] of 0.16 s⁻¹.

Broadly, the koff is the first-order rate constant of dissociation. As usually defined, the Kd is the concentration at which binding is half-saturated.

The record behind these values is PMC3937676, “Dynamics of Inter-heavy Chain Interactions in Human Immunoglobulin G (IgG) Subclasses Studied by Kinetic Fab Arm Exchange^([image sbox.jpg])” (The Journal of Biological Chemistry, 2014).
